# Reference: publication doi:10.1101/2025.05.02.651258, “The LOTUS domain of Oskar promotes localisation of both protein and mRNA components of Drosophila germ plasm” (bioRxiv, 2025)
# Experiments:
# [1] = target: the molecule itself; test: SEC; analytical SEC, Superose 6 PC 3.2/30, 5.0 mg/mL, 20 mM Tris pH 8.0 with 200, 500 or 1000 mM NaCl, 0.05 mL/min; apparent molecular weight from gel filtration standards
# [2] = target: the molecule itself; test: SEC-MALS; Superdex 75 10/300 GL, 10 mg/mL, 20 mM Tris pH 8.0, 200 mM NaCl; data not shown
protein,measurement,setting,value
"D. melanogaster Oskar LOTUS domain, residues 139-241 (Losk139–241), purified (domain or fragment, Oskar, D. melanogaster, LOTUS domain residues 139-241 (Losk139–241); numbers on the long isoform (1-606); remnant of the 3C protease cleavage site left at the C-terminus after removal of the decahistidine tag; Crystal form 4 was grown from HgCl2-derivatised protein; also called fly LOTUS domain; source: E. coli BL21(DE3), purified (Ni-NTA, 3C protease cleavage, gel filtration); not shown: His10, …) MTIIESNYISVREEYPDIDSEVRAILLSHAQNGITISSIKSEYRKLTGNPFPLHDNVTDFLLTIPNVTAECSESGKRIFNLKASLKNGHLLDMVLNQKERTSDLEVLFQ",stoichiometry N,[1],~2
same,stoichiometry N,[2],2
